# In the supplement of paper PMC9170038:
# Test system: MS2 coat protein
# Experiment: apparent KD of MS2 coat protein; higher = weaker reporter binding
# Conditions: Eterna round: R107; input ligand: arginine 13.2 mM
# How it was run: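 Designed RNA switches were transcribed on-chip from Illumina sequencing clusters. SNAP-549-labelled MS2 coat protein was titrated onto them in twofold steps from 0.7 or 1.5 nM to 3 µM in 100 mM Tris-HCl pH 7.5, 80 mM KCl, 4 mM MgCl2, either without or with constant ligand. Apparent KD reflects the per-design median of normalised cluster binding-curve fits.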
row,Sequence,apparent KD of MS2 coat protein [nM]
1,UUAAUCAUAUAUGAAAACAUAUAUGCAGAAGGAGCGUGAUAAAACACAGGUAGGUCGCUGAAGGGAACAUGAGGAUCACCCAUGU [AstrosSSArgA#2],47.4
2,UUCAGCUAGUCGGCCGCCACUACACGAGGAUCACCCGUGUUCCUAAAACACUGCUUCGGCAGUGGUAGGACCGGGACUAGCUGAG,27.7
3,AUUGGGUUAUCAGAUACCAGACUAUUCUAGACAUGAGGAUCACCCAUGUAUUGGGUUUUCGUCCCUUGGCAGCUGUUAAGUUUAA [JR_SSTheophyB_Sub005],117
4,AACAUGAGGAUCACCCAUGUCUGAACUGAAGGAGCGCUAAAUAAGGCAGGUAGGUCGCGGAAUUUUGUGUAUAUAUAUAUAUGGG [9.G],17.6
5,ACGUCUCGUUUACUCGUGGGUUAGCUCGAUACCAGUAUUCAAACUUACCCUUGGCAGCGACAUGAGGAUCACCCAUGUGCGAAGA [XTheo A #23],17.3
6,GCACAAGAUGGAAGGAGCGCUGGUAAAAGUCACAUGAGGAUCACCCAUGUGCUCCUUGCCGAGCAGGUAGGUCGCCAUCUUGUGC [SSAB NP+V+V2 #4],19.5
7,UCACAUGAGGAUCACCCAUGUACAGGCGAUACCAGCCGUACAUUGGGCCCUUGGCAGCGCACCGAGACCUUUUAAAGCACUUCGG [Er],33.5
8,UAACAUGAGGAUCACCCAUGUAUAGUCGAUACCAGCUCAAGGGAGAGCCCUUGGCAGCGACACUGGUAUCCAUGGGUGUGGAUAC [(Ms2)-(Theo)-(T)'-(M)'-(T)''_Design3],76.9
9,CACUACAUGAGGAUCACCCAUGUAUACUGACGAGGACCGGUACGGCCGCCACUCGAACCGAAACCGACUUCAUUCUGUGUACCAU [theeternabot_sameState_MS2_Trp_A_26],15
10,AGUACAUGAGGAUCACCCAUGUAUCGGUACCGAGGACCGGUACGGCCGCCACUCGCAGGACAUGAGGAUCACCCAUGUGCCGCCG [SSTA DOUBLE!!! :-D #9],13.9
11,AUAAUGGGUUUCGGACUAUCAUGGAAUGAUACCAGAUACUUAGAAAUCCCUUGGCAGCAUGAGGACAUGAGGAUCACCCAUGUAU [Th A Ex t1],41.9
12,GGAGCUACGUCGGCCGCCACUAGCGGUAAUUACGUGUACAUGAGGAUCACCCAUGUAAUAUGGACUAGGACCGGGACGUAGCUCC [Salmon],10.6
13,UUCAGCUAGUCGGCCGCCACUACAAGAGGAUCACCCUUGUAAUCCUAACACUGCUUCGGCAGUGGUAGGACCGGGACUAGCUGAG,15.1
14,GUAAUGAUAAGAAGGAGCGUCGAAAAUGGGUAAACAUGAGGAUCACCCAUGUAAAGGGAACGACAGGUAGGUCGCUUAUUAUUAC [AstromonsSSArgB#21],126
15,UAUAUAUGGAUGGAUACCAGCAGAGAAAACGUUUAUCCUAACAUGAGGAUCACCCAUGUAUGCCCUUGGCAGCUGUUUAUAUAUA [8.J],21
16,CUCCCGUGGUCGGCCGCCACUGGAGGCCUUGCGCGACAUGAGGAUCACCCAUGUGGGCCCGGCGUCAGGACCGGGAUCGCGUGAG [#1 Same State - Tryptophan B Attempt #11 (HarryS)],11.5
17,AUGUUUGUGUGAGAUACCAGUGAGGCCACAUGAGGAUCACCCAUGUCCCUCACUCCGGCCCACCCUUGGCAGCUCUUAUAGUAAA [Exclusion Theophylline B GF 25],12
18,UAUCCACAUGAGGAUCACCCAUGUAGGGAAGGAGCGGUGAUUUCACCAGGUAGGUCGCCUUACUGAGGAGAGCCGGUGGAAUCGU [Exclusion - Arginine A (Freestyle 31)],22.3
19,GACAUGAGGAUCACCCAUGUUUGCUAUGAAGGAGCGUCGGAAAUGACAGGUAGGUCGCAUAGUAGGCCUUGUAUUUUGUGUGUUU [EAA #8],11.4

row,Sequence,apparent KD of MS2 coat protein [nM]
1,GUCUCUGGGAGAAGGAGCGUGAAGACAUGAGGAUCACCCAUGUAGAGGCGCCGACGGCGUUCGCAGGUAGGUCGCUCCCAGAGAC [#1 Same State - Arginine B Attempt #18 (HarryS)],18.9
2,AGAAUACAUGUUUUAAUACGGAAAACUGAUACCAGUGUAUCUAUUCACCCUUGGCAGCAGAGACAUGAGGAUCACCCAUGUAUUA [JR_Nu_SSTheophyA_Sub019],28.1
3,ACAUGAGGAUCACCCAUGUAACAACGGGAAGGAGCGCCAAACAAGGCAGGUAGGUCGCCCACAUGAGGAUCACCCAUGUGUUGGG [Exclusion Arginine A GF 27],30.7
4,UGUAUGUGAUUUGAUACCAGACCAGCGGGUGUUACUUGAGGAACACCCAAGUAGGUUUGGGUCCCUUGGCAGCAAAUCGCAUACU [SS Theo B #24 Ms9],452
5,CACAUGAGGAUCACCCAUGUCUGAACUGAAGGAGCGCUAAACAAGGCAGGUAGGUCGCGGAAUUUUGUGUGCAUAUGCACACGGG [9.R],16.8
6,GUCACACAGUAGGAUACCAGCGUGGCUUAUCCCUGAUCGUACAUGAGGAUCACCCAUGUCCGCCCUUGGCAGCCUCCUGCUCGGA [theeternabot_exclusion_MS2_Theo_B_33],12.4
7,UAUUAUAACCGAAGGAGCGGGAAAGAUGAUUUUUAAUAUUAACAUGAGGAUCACCCAUGUACCCAGGUAGGUCGCGGAUAUUAUU [Default title],23.8
8,UUCACGGGCACGGCCGCCACUAACCAACAUGAGGAUCACCCAUGUGUAUUGGACGACCUCUUUGCUAGGACCGGGUGUAUGGUUC [theeternabot_exclusion_MS2_Trp_B_15],25.3
9,ACCUACACGGAGACGUGUAGGAGUAAUGAUACCAGCAUGGAGACAUGCCCUUGGCAGCGUUACAUGAGGAUCACCCAUGUAGUGC [ETHA #5],10.4
10,AAAAUAUACGGAAGGAGCGUGUAAGAUUAAGAACAUGAGGAUCACCCAUGUUUUAAGGGAACACAGGUAGGUCGCCGUAUAUAAA [11.N],12.9
11,UACUUGCUGACGGCCGCCACUAGAACAUGAGGAUCACCCAUGUACGGCGGCCGUCAUGGGUGGACUAGGACCGGGUCAGCAAGAU [(Trp1)-(Ms2)-(T)'-(M)'-(Trp2)_Design6],10.7
12,UUUACAUGAGGAUCACCCAUGUGCCAUGAUACCAGACAUGAAAAUGUCCCUUGGCAGCAUGGGUGUAGCGUCGGGAAACCGACGC [Kohoutovice],97.5
13,AAAACUCAUGGCUUAUAUCCGUGUCUCGAAGGAGCGUACAGCGGUACAGGUAGGUCGCGAGACAUGAGGAUCACCCAUGUGUAAA [XArg-A 20 V1&2 original #dotplot2>1],22.3
14,UGUAUGUGAUUUGAUACCAGACCAACUGGUAAAACAUGAGGAUCACCCAUGUAAACUUGGGUCCCUUGGCAGCAAAUCGCAUACU [SSTheo B #22],67.8
15,AGAACUUUGGUGGAUACCAGCUUCUGGCCAUCCUUCAAAUACAUGAGGAUCACCCAUGUUAGCCCUUGGCAGCCAACAUAGACUG [theeternabot_exclusion_MS2_Theo_B_44],21.7
16,AUCACUGUGAAAGAUACCAGCGCCCUACCUAUCUUCUGUUACAUGAGGAUCACCCAUGUUCGCCCUUGGCAGCUUGAGAUGGAUC [theeternabot_exclusion_MS2_Theo_B_11],44.2
17,UACUUGCUGACGGCCGCCACUAGAACAUGAGGAUCACCCAUGUAUGGCGGCCGUCAUGGGUGGACUAGGACCGGGUCAGCAAGAU [(Trp1)-(Ms2)-(T)'-(M)'-(Trp2)_Design7],11.4
18,UAUCGUCAGACGGCCGCCACUAGAACAUGAGGAUCACCCAUGUACCCGGUCCAUUCCUCAUUAACUAGGACCGGGUCUGACGAAU [(Trp1)-(Ms2)-(T)'-(M)'-(Trp2)_Design13],88.3
19,AAAUAAAUACAUGAGGAUCACCCAUGUGAAGGAGCGCCCGUUAGGGCAGGUAGGUCGCACAUGAAUAACUCCGCGCGAAAGCGCA [MAT - Exclusion Arginine A - Mod of Eli - D10],41.8

# Same assay, conditions: Eterna round: R107; input ligand: none
row,Sequence,apparent KD of MS2 coat protein [nM]
1,UUAAUCAUAUAUGAAAACAUAUAUGCAGAAGGAGCGUGAUAAAACACAGGUAGGUCGCUGAAGGGAACAUGAGGAUCACCCAUGU [AstrosSSArgA#2],24.8
